{"source": "patent US20240294624A1", "about": "“ANTI-ERYTHROPOIETIN ANTIBODY” (ANDREMACON S.R.L., priority 2021, published 2024)", "molecules": {"B1": {"name": "anti-EPO (C4): isolated anti-Erythropoietin monoclonal antibody, VL SEQ ID NO:6, VH SEQ ID NO:14, hybridoma DSM ACC 3370 (antibody, listed as Homo sapiens, V domains shown)", "VH": "EVKLQESGGGLVQPGGSLKLSCAASGFTFSTYTMSWVRQTPEKRLEWVAYISNGGDRTYYPDTVKGRFTISRDDAKNTLFLQMSSLKSEDTAMYYCARHNITTVPFTMDYWGQGTSVTVSS", "VL": "DIVLTQSPASLAVSLGQRATISCRASESVDYYGTGLMQWYQQRPGQPPKLLIYGASNVGSGVPARFSGSGSGTDFSLNIHPVEGDDIAMYFCQQTRKVPSTFGGGTKLEIK", "modifications": "VH amino acid sequence; VL amino acid sequence"}}, "key": {"PC-3 [1]": {"system": "PC-3", "test": "Caspase Glo 3/7 assay", "assay_type": "cell-based, human", "experimental": "Furthermore, cellular models were treated the above-mentioned pharmacological drugs and apoptotic effect was evaluated by caspase activity.\nData are expressed as the mean±standard deviation of at least 3 experiments in triplicate. *P<0.05 versus CTR for all treatments tested."}, "murine EPO (mEPO)": {"biological_target": "T1, murine EPO (mEPO) (Mus musculus, UniProt P07321)", "T1 sequence (P07321 27-192)": "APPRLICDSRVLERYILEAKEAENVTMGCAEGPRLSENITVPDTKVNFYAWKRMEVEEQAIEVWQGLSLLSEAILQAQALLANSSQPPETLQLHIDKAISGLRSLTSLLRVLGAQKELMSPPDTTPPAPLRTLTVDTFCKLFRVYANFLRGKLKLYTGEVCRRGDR", "test": "SPR binding kinetics", "settings": "m-EPO", "experimental": "FIG. 26A SPR technology can allow to determine the plasma and tissue concentrations of antibody, on the basis of an appropriate calibration curve. FIG. 26B Blood samples were collected from the retroorbital plexus under isoflurane anesthesia at 4, 24, 48, 72, 120, and 168 h from treatment.\nSPR is a technology widely used to study in real time the interaction between two unlabeled molecules, one (the “ligand”) immobilized on a sensor chip, and the other (the “analyte”) flowing through a microfluidic system over the chip surface. Binding is measured in real time as a change in the refractive index on the surface. The most common application of SPR is to determine the association/dissociation binding constants for biomolecular interactions, but its versatility allows many other uses, including label-free immunoassays and concentration determination of biologics.\nThe study was carried out using an up-to-date SPR apparatus, the ProteOn XPR36 Protein Interaction Array system (Bio-Rad Laboratories). This system is mainly characterized by the presence of six flow channels which can uniformly immobilize up to six ligands on parallel strips of the same sensor surface.\nIn addition, SPR analysis was performed for anti-EPO (C4) to evaluate the binding kinetics parameters."}, "primary GSCs": {"system": "primary GSCs", "test": "MTT cell viability assay", "assay_type": "cell-based, human", "settings": "96 hours, anti-EPO (C4) 6 μg/ml, TMZ 100 μM, FTY720 100 nM", "description": "A. Primary glioblastoma cancer stem cells (GCSc)."}, "HOC84 stem cells": {"system": "HOC84 stem cells", "test": "Gene expression by RealTime PCR", "assay_type": "cell-based, human", "settings": "72 h", "experimental": "The analysis was performed by the assessment of gene expression by RealTime PCR on genes related to apoptosis (FIG. 23A), proliferation (FIG. 23B), angiogenesis (FIG. 23C), and inflammation (FIG. 23D). HOC84 stem cells (2×10^5) were seeded into 25 cm2 collagen-coated culture flasks. […] At the end, total RNA was extracted following TRI-Reagent protocol and quantified with NanoDrop 1000 Spectro-photometer (Thermo Fisher Scientific). Reverse transcriptase reaction was executed using TranScriba Kit (A&A Biotechnology), loading 1 μg of RNA (A260/A280>1.8), according to manufacturer's instructions. qRT-PCR was performed using StepOnePlus™ (Thermo Fisher Scientific), 1 μg of cDNA, forward and reverse primers (250 nM each) Titan HotTaq EvaGreen® qPCR Mix (Bioatlas). Data were normalized to 18S expression, used as endogenous control. Relative gene expression was determined using the 2−ΔΔCt method (FIG. 23)."}, "PC-3 [2]": {"system": "PC-3", "test": "MTT cell viability assay", "assay_type": "cell-based, human", "settings": "96 hours, 6 μg/ml", "description": "(§1) F. Prostate cancer cell lines (PC-3 and LNCAP); human prostate cancer cells used in cancer research and drug development. […] have been reported to be overexpressed and associated with poor prognosis and reduced survival in prostate cancer patients, and are considered predictive markers of aggressive prostate cancer behavior."}, "LNCAP": {"system": "LNCAP", "test": "MTT cell viability assay", "assay_type": "cell-based, human", "settings": "96 hours, 6 μg/ml", "description": "as §1"}, "[3]": {"test": "Renal and liver toxicity, serum biochemistry", "assay_type": "in vivo", "settings": "mice; 11 and 18 days after treatment starting", "experimental": "Serum for Biochemistry were collected at least 400 μL of blood and putted it in an eppendorf tube with or without (plasma/serum) anticoagulant. The samples were left at environment temperature for at least 30′ minutes, then centrifuged at 500 g for 10 min, the supernatants were collected, being careful not to take the precipitate and analyzed for Biochemical tests. […] (A) Urea; (B) Creatinine; (C) Albumine, (D) AST; aspartate aminotransferase; (E) ALT: alanine aminotransferase. (FIG. 29)"}, "[4]": {"test": "Tissue distribution by SPR (tumor, liver, kidney)", "assay_type": "in vivo, mice", "experimental": "Tumor tissues were analyzed after their homogenization in TBST (1 g/2 mL) with an Precellys ysing Kit tubes, ultracentrifugation for 1 h at 110000 g and 1:2 dilution of the supernatant into optimized TBST buffer.\nThe pharmacokinetic (PK) profile of anti-EPO (C4) was assessed after single i.v. injection in mice models for glioblastoma. In particular, the antibody concentrations were measured at different time points after treatment (from 6 hours to 1 week) in:\n1) plasma, to determine the main PK parameters (mainly half-time of elimination and volume of distribution); 2) tumor, to assess the antibody presence in the target tissue; 3) in kidney and liver to evaluate the elimination route.\nWhen tumor masses reached about 500 mg, animals were treated i.v. with 10 mg/kg of anti-EPO (C4) antibody. Blood samples were collected from the retroorbital plexus under isoflurane anesthesia at 4, 24, 48, 72, 120, and 168 h from treatment (FIG. 26B). Mice were sacrificed by cervical dislocation. Tumors were collected. To obtain plasma, blood samples were centrifuged at 4000 rpm for 10 min at 4° C. All samples were immediately frozen in dry ice and then stored at −20° C. until analysis. Four mice were used at each time point."}, "A2780": {"system": "A2780", "test": "MTT cell viability assay", "assay_type": "cell-based, human", "settings": "96 hours, 6 μg/ml", "description": "I. Ovarian cancer cell line (A2780); ovarian cancer cells used in toxicity testing, drug screening and genetic cancer studies."}, "DLD1": {"system": "DLD1", "test": "MTT cell viability assay", "assay_type": "cell-based, human", "settings": "96 hours, 6 μg/ml", "method": "Cell viability was assessed by 3-(4,5-Dimethylthiazol-2-yl)-2,5-Diphenyl-tetrazoliumBromide (MTT) assay, as a function of redox potential (FIGS. 2-7). Cells (5×10^3/well) were seeded and cultured in 96-well plate for 24 h in Basal Medium (BM). Then, culture media were replaced with fresh media containing the specific treatments, or in BM as a control condition (CTR).\nTest was performed in triplicate after 96 h of treatment, by replacing culture media with 100 μL of fresh media added with 10 μL of MTT 5 mg/ml in D-PBS. After 4 h of incubation, media were removed and cells were lysed with 100 μL of 2-propanol/formic acid (95:5, by vol) for 10 min. Then, absorbance was read at 570 nm in microplate reader."}, "K562": {"system": "K562", "test": "MTT cell viability assay", "assay_type": "cell-based, human", "settings": "96 hours, 6 μg/ml", "description": "H. Myelogenous leukemia cell line (K562); chronic myeloid leukemia cells. Circulating […] levels are reliably higher in myelodysplastic syndromes than in healthy people, with a negative predictive role;"}, "GBM-CSC cell line": {"system": "GBM-CSC cell line", "test": "MTT cell viability assay", "assay_type": "cell-based, human", "settings": "96 hours, anti-EPO (C4) 6 μg/ml, TMZ 100 μM, FTY720 100 nM", "experimental": "C. Glioblastoma cancer stem cell commercial line (Glioblastoma stem cell line, GBM-CSCs). Anti-EPO treatments were performed on GBM-CSCs, a commercial glioblastoma cancer cell line by CelProgen. As reported in the datasheet, GBM-CSCs have been isolated from human brain cancer tissue. GBM-CSCs were maintained in Celprogen's human glioblastoma cancer stem cell (GBM) complete growth medium and subcultured every 24 to 48 hours on a specific extra-cellular matrix."}}, "data": [{"molecule": "B1", "values": [{"measurement": "increment of apoptosis (caspase 3/7 activation)", "setting": "PC-3 [1]", "value": 243, "unit": "%"}, {"measurement": "kd", "setting": "murine EPO (mEPO)", "value": 0.000669, "unit": "s⁻¹"}, {"measurement": "Kd", "setting": "murine EPO (mEPO); rounded", "value": 1, "unit": "µM"}, {"measurement": "cells initially seeded dead", "setting": "primary GSCs", "value": "about 73%"}, {"measurement": "expression of genes related to angiogenesis", "setting": "HOC84 stem cells", "value": "significantly inhibits proliferation and angiogenesis"}, {"measurement": "expression of genes related to apoptosis", "setting": "HOC84 stem cells", "value": "increases apotosis and inflammation"}, {"measurement": "expression of genes related to inflammation", "setting": "HOC84 stem cells", "value": "higher expressed"}, {"measurement": "cells initially plated dead", "setting": "PC-3 [2]", "value": 71, "unit": "%"}, {"measurement": "cells initially plated dead", "setting": "LNCAP", "value": 74, "unit": "%"}, {"measurement": "serum biochemistry (urea, creatinine, albumine, AST, ALT)", "setting": "[3]", "value": "no significant variations"}, {"measurement": "antibody distribution tumor vs kidney and liver", "setting": "[4]; i.v. 10 mg/Kg, SPR", "value": "higher levels of antibody in the tumoral tissues respect to kidney and liver"}, {"measurement": "antibody levels in tumor tissues, PK profile", "setting": "[4]; tumor, i.v. 10 mg/kg", "value": "levels were measurable, with a bell-shaped PK profile"}, {"measurement": "cells initially plated dead", "setting": "A2780", "value": 63, "unit": "%"}, {"measurement": "cells initially plated dead", "setting": "DLD1", "value": 73, "unit": "%"}, {"measurement": "cells initially plated dead", "setting": "K562", "value": 62, "unit": "%"}, {"measurement": "cells initially seeded dead", "setting": "GBM-CSC cell line", "value": "~79", "unit": "%"}]}]}
